Experimental data published in ChEMBL document CHEMBL1126004, “Synthesis and resolution of 7-fluorotryptophans” (Bioorg Med Chem Lett, 1991).

Experiments:
[1] = substrate: N[C@@H](Cc1c[nH]c2c(F)cc(F)cc12)C(=O)O; test: (§1) Compound was evaluated for Michaelis-Menten constant (Km) in a reaction with tryptophan indole-lyase (tryptophanase) from Escherichia coli
[2] = substrate: N[C@@H](Cc1c[nH]c2c(F)cccc12)C(=O)O; test: as §1
[3] = substrate: N[C@@H](Cc1c[nH]c2ccccc12)C(=O)O; test: as §1
[4] = substrate: N[C@@H](Cc1c[nH]c2c(F)ccc(F)c12)C(=O)O; test: as §1
[5] = substrate: N[C@@H](Cc1c[nH]c2c(F)cc(F)cc12)C(=O)O; test: (§2) Compound was evaluated for relative maximum velocity (Vmax) in a reaction with tryptophan indole-lyase (tryptophanase) from Escherichia coli
[6] = substrate: N[C@@H](Cc1c[nH]c2c(F)cccc12)C(=O)O; test: as §2
[7] = substrate: N[C@@H](Cc1c[nH]c2ccccc12)C(=O)O; test: as §2
[8] = substrate: N[C@@H](Cc1c[nH]c2c(F)ccc(F)c12)C(=O)O; test: as §2

B1: Tryptophan 2,3-dioxygenase (Homo sapiens), P48775 (protein)
chain: MSGCPFLGNNFGYTFKKLPVEGSEEDKSQTGVNRASKGGLIYGNYLHLEKVLNAQELQSETKGNKIHDEHLFIITHQAYELWFKQILWELDSVREIFQNGHVRDERNMLKVVSRMHRVSVILKLLVQQFSILETMTALDFNDFREYLSPASGFQSLQFRLLENKIGVLQNMRVPYNRRHYRDNFKGEENELLLKSEQEKTLLELVEAWLERTPGLEPHGFNFWGKLEKNITRGLEEEFIRIQAKEESEEKEEQVAEFQKQKEVLLSLFDEKRHEHLLSKGERRLSYRALQGALMIYFYREEPRFQVPFQLLTSLMDIDSLMTKWRYNHVCMVHRMLGSKAGTGGSSGYHYLRSTVSDRYKVFVDLFNLSTYLIPRHWIPKMNPTIHKFLYTAEYCDSSYFSSDESD
Protein B1 has a Km [1] of 490 µM, a Km [2] of 640 µM and a Km [3] of 260 µM. For the same protein, the Km [4] was 1700 µM, the Vmax [5] was 58% and the Vmax [6] was 29%. For the same protein, the Vmax [7] was 100% and the Vmax [8] was 42%.
